Data taken from patent US20150344570A1 (published 2015).

T1: FcγRIIa R (FcγRIIa allotype with Arg at position 131), extracellular domain with C-terminal His tag (human, UniProt P12318 34-217)
T1 construct: extracellular domain; made in FreeStyle293 cells; analyte in the Biacore assay; also called FcγRIIa type R; 2aR
T1 sequence (looked up): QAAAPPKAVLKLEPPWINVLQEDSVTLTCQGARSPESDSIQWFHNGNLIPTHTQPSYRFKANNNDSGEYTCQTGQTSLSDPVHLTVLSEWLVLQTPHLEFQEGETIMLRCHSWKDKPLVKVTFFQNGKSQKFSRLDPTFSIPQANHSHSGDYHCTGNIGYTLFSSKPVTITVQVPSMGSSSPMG

T2: FcγRIIb extracellular domain with C-terminal His tag (human, UniProt P31994 43-217)
T2 construct: extracellular domain; Expressed in FreeStyle293 cells; analyte in the SPR assay; also called FcgRIIb; 2b
T2 sequence (looked up): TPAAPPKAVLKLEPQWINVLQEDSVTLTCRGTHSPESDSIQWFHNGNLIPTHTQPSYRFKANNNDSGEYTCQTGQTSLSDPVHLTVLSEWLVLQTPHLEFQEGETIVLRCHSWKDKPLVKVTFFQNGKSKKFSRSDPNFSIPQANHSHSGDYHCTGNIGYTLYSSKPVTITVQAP

T3: FcγRIIb, extracellular domain with C-terminal His tag (human, UniProt P31994 43-217)
T3 construct: extracellular domain; made in FreeStyle293 cells; analyte in the Biacore assay; also called 2b; FcgRIIb
T3 sequence (looked up): T2 sequence (looked up)

B1: GpH7-A5/GpH7-B3 variant L234_16H/GpL16-k0 (antibody, human IgG1, kappa)
heavy 1: not shown
heavy 2: not shown
light: DIVMTQSPLSLPVTPGEPASISCQASESLVHSNRNTYLHWYLQKPGQSPQLLIYKVSNRFSGVPDRFSGSGSGTDFTLKISRVEAEDVGVYYCSQNTHVPPTFGQGTKVEIERTVAAPSVFIFPPSDEQLKSGTASVVCLLNNFYPREAKVQWKVDNALQSGNSQESVTEQDSKDSTYSLSSTLTLSKADYEKHKVYACEVTHQGLSSPVTKSFNRGEC
notes: heterodimerized IgG1, mutation in one H chain only; also called He Ab
B2: GpH7-A5/GpH7-B3 variant L234_19Q/GpL16-k0 (antibody, human IgG1, kappa)
heavy 1: not shown
heavy 2: not shown
light: B1 light
notes: as for B1
B3: GpH7-A5/GpH7-B3 variant L235_01G/GpL16-k0 (antibody, human IgG1, kappa)
heavy 1: not shown
heavy 2: not shown
light: B1 light
notes: as for B1
B4: GpH7-A5/GpH7-B3 variant L235_11K/GpL16-k0 (antibody, human IgG1, kappa)
heavy 1: not shown
heavy 2: not shown
light: B1 light
notes: as for B1
B5: GpH7-A5/GpH7-B3 variant L235_12R/GpL16-k0 (antibody, human IgG1, kappa)
heavy 1: not shown
heavy 2: not shown
light: B1 light
notes: as for B1
B6: GpH7-A5/GpH7-B3 variant L234_19Q/GpL16-k0 (He Ab) (antibody, human IgG1, kappa)
heavy 1: not shown
heavy 2: not shown
light: B1 light
notes: He Ab: mutation in one H chain only
B7: GpH7-A5/GpH7-B3 variant L235_01G/GpL16-k0 (He Ab) (antibody, human IgG1, kappa)
heavy 1: not shown
heavy 2: not shown
light: B1 light
notes: as for B6
B8: GpH7-A5/GpH7-B3 variant L235_02A/GpL16-k0 (He Ab) (antibody, human IgG1, kappa)
heavy 1: not shown
heavy 2: not shown
light: B1 light
notes: as for B6
B9: GpH7-A5/GpH7-B3 variant L235_03V/GpL16-k0 (He Ab) (antibody, human IgG1, kappa)
heavy 1: not shown
heavy 2: not shown
light: B1 light
notes: as for B6
B10: GpH7-A5/GpH7-B3 variant L235_05P/GpL16-k0 (He Ab) (antibody, human IgG1, kappa)
heavy 1: not shown
heavy 2: not shown
light: B1 light
notes: as for B6
B11: GpH7-A5/GpH7-B3 variant L235_06M/GpL16-k0 (He Ab) (antibody, human IgG1, kappa)
heavy 1: not shown
heavy 2: not shown
light: B1 light
notes: as for B6
B12: GpH7-A5/GpH7-B3 variant L235_11K/GpL16-k0 (He Ab) (antibody, human IgG1, kappa)
heavy 1: not shown
heavy 2: not shown
light: B1 light
notes: as for B6
B13: GpH7-A5/GpH7-B3 variant L235_13S/GpL16-k0 (He Ab) (antibody, human IgG1, kappa)
heavy 1: not shown
heavy 2: not shown
light: B1 light
notes: as for B6
B14: GpH7-A5/GpH7-B3 variant L235_14T/GpL16-k0 (He Ab) (antibody, human IgG1, kappa)
heavy 1: not shown
heavy 2: not shown
light: B1 light
notes: as for B6
B15: GpH7-A5/GpH7-B3 variant L235_18N/GpL16-k0 (He Ab) (antibody, human IgG1, kappa)
heavy 1: not shown
heavy 2: not shown
light: B1 light
notes: as for B6
B16: GpH7-A5/GpH7-B3 variant L235_19Q/GpL16-k0 (He Ab) (antibody, human IgG1, kappa)
heavy 1: not shown
heavy 2: not shown
light: B1 light
notes: as for B6

These binders were tested against T1, FcγRIIa R (FcγRIIa allotype with Arg at …) (assay: SPR (Biacore); He/Con_2aR divided by He/Con_2b, binding to FcγRIIa R against binding to FcγRIIb).
Experimental: The heterodimerized antibodies He Abs in which one of the H chains was introduced with an alteration were assayed for their binding activities to each activating FcγR and inhibitory FcγR according to the method described in Example 4. […] The activating FcγRs in FIGS. 26, 27, 28, and 29 are FcγRIa, FcγRIIa (R), FcγRIIa (H), and FcγRIIIa, respectively.
Analysis of interaction between objective antibody and the FcγR was carried out using Biacore T100 (GE Healthcare). HBS-EP+ (GE Healthcare) was used as the running buffer, and the measurement temperature was set to 25° C. Chips produced by immobilizing the antigen peptide by the amine coupling method to a Series S Sencor Chip CM5 (GE Healthcare), or alternatively, chips produced by allowing preliminarily biotinylated antigen peptides to interact with and immobilize onto a Series S Sensor Chip SA (certified) (GE Healthcare) were used. Antibodies of interest were captured onto an antigen peptide-immobilized chip, and allowed to interact to each FcγR diluted with running buffer. To regenerate and repeatedly use the chip, the antibodies captured on the chip were washed off by reacting 10 mM glycine-HCl, pH 1.5.

Q: How did the “He_2aR/2b (IIaR/IIb)” value turn out when B1 was run?
A: 1.21 ratio

Q: Which “He_2aR/2b (IIaR/IIb)” value does the source give for B2 here?
A: 1.24 ratio

Q: For B3, which “He_2aR/2b (IIaR/IIb)” value is on record?
A: 1.37 ratio

Q: Which “He_2aR/2b (IIaR/IIb)” value does the source give for B4 here?
A: 1.72 ratio

Q: B5 was tested. Which “He_2aR/2b (IIaR/IIb)” value did it give?
A: 1.69 ratio

Each binder was assayed against T2, FcγRIIb extracellular domain with … (assay: SPR (Biacore), relative binding, HeCon Ab = 100).

Q: For B6, which He/Con_2b is on record?
A: 60.3 % of HeCon Ab (=100)

Q: Which He/Con_2b does the source give for B7 here?
A: 35.4 % of HeCon Ab (=100)

Q: For B8, which He/Con_2b is on record?
A: 63 % of HeCon Ab (=100)

Q: Which He/Con_2b does the source give for B9 here?
A: 66.4 % of HeCon Ab (=100)

Q: With B10 as the binder, how does the He/Con_2b read?
A: 54.7 % of HeCon Ab (=100)

Q: For B11, which He/Con_2b is on record?
A: 81 % of HeCon Ab (=100)

Q: With B12 as the binder, how does the He/Con_2b read?
A: 6.3 % of HeCon Ab (=100)

Q: B13 was tested. Which He/Con_2b did it give?
A: 48.2 % of HeCon Ab (=100)

Q: Which He/Con_2b does the source give for B14 here?
A: 46.8 % of HeCon Ab (=100)

Q: B15 was tested. Which He/Con_2b did it give?
A: 54.9 % of HeCon Ab (=100)

Q: How did the He/Con_2b turn out when B16 was run?
A: 42.6 % of HeCon Ab (=100)

These binders were tested against T4, FcγRIa extracellular domain with C-terminal His tag (human, UniProt P12314 16-292) (assay: SPR (Biacore), relative binding, HeCon Ab = 100).
T4 construct: extracellular domain; Expressed in FreeStyle293 cells; analyte in the SPR assay; also called FcgRI; 1a
T4 sequence (P12314 16-292): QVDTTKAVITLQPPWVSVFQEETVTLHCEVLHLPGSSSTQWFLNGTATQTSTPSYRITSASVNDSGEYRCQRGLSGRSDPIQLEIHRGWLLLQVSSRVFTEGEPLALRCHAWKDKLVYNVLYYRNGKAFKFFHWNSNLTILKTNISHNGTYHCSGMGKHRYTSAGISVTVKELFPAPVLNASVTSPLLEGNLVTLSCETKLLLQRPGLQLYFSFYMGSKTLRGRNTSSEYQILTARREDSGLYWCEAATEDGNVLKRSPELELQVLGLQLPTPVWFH

Q: With B6 as the binder, how does the He/Con_1a read?
A: 95.7 % of HeCon Ab (=100)

Q: Which He/Con_1a does the source give for B7 here?
A: 87.2 % of HeCon Ab (=100)

Q: For B8, which He/Con_1a is on record?
A: 92.2 % of HeCon Ab (=100)

Q: With B9 as the binder, how does the He/Con_1a read?
A: 94.7 % of HeCon Ab (=100)

Q: How did the He/Con_1a turn out when B10 was run?
A: 94.7 % of HeCon Ab (=100)

Q: Which He/Con_1a does the source give for B11 here?
A: 98 % of HeCon Ab (=100)

Q: How did the He/Con_1a turn out when B12 was run?
A: 79.9 % of HeCon Ab (=100)

Q: With B13 as the binder, how does the He/Con_1a read?
A: 90.5 % of HeCon Ab (=100)

Q: Which He/Con_1a does the source give for B14 here?
A: 88.7 % of HeCon Ab (=100)

Q: Which He/Con_1a does the source give for B15 here?
A: 92.2 % of HeCon Ab (=100)

Q: B16 was tested. Which He/Con_1a did it give?
A: 94 % of HeCon Ab (=100)

Each binder was assayed against T3, FcγRIIb, extracellular domain with … (assay: SPR (Biacore), antibody captured, FcγR analyte; vs GpH7-A5/GpH7-B3/GpL16-k0 = 100).

Q: With B1 as the binder, how does the He/Con_2b read?
A: 59.4 relative (HeCon Ab = 100)

Q: B2 was tested. Which He/Con_2b did it give?
A: 60.3 relative (HeCon Ab = 100)

Q: Which He/Con_2b does the source give for B3 here?
A: 35.4 relative (HeCon Ab = 100)

Q: With B4 as the binder, how does the He/Con_2b read?
A: 6.3 relative (HeCon Ab = 100)

The binders below were run against T1, FcγRIIa R (FcγRIIa allotype with Arg at …) in the same assay as above.

Q: For B1, which He/Con_2aR is on record?
A: 71.8 relative (HeCon Ab = 100)

Q: With B2 as the binder, how does the He/Con_2aR read?
A: 75.1 relative (HeCon Ab = 100)

Q: Which He/Con_2aR does the source give for B3 here?
A: 48.5 relative (HeCon Ab = 100)

Q: For B4, which He/Con_2aR is on record?
A: 10.8 relative (HeCon Ab = 100)

Q: B5 was tested. Which He/Con_2aR did it give?
A: 16.2 relative (HeCon Ab = 100)

Each binder was assayed against T4, FcγRIa extracellular domain with … (assay: SPR (Biacore); He/Con_1a divided by He/Con_2b (FcγRIa against FcγRIIb)).

Q: B6 was tested. Which “He_1a/2b (Ia/IIb)” value did it give?
A: 1.59 ratio

Q: Which “He_1a/2b (Ia/IIb)” value does the source give for B7 here?
A: 2.46 ratio

Q: B8 was tested. Which “He_1a/2b (Ia/IIb)” value did it give?
A: 1.46 ratio

Q: How did the “He_1a/2b (Ia/IIb)” value turn out when B9 was run?
A: 1.43 ratio

Q: With B10 as the binder, how does the “He_1a/2b (Ia/IIb)” value read?
A: 1.73 ratio

Q: How did the “He_1a/2b (Ia/IIb)” value turn out when B11 was run?
A: 1.21 ratio

Q: With B12 as the binder, how does the “He_1a/2b (Ia/IIb)” value read?
A: 12.7 ratio

Q: B13 was tested. Which “He_1a/2b (Ia/IIb)” value did it give?
A: 1.88 ratio

Q: With B14 as the binder, how does the “He_1a/2b (Ia/IIb)” value read?
A: 1.9 ratio

Q: Which “He_1a/2b (Ia/IIb)” value does the source give for B15 here?
A: 1.68 ratio

Q: B16 was tested. Which “He_1a/2b (Ia/IIb)” value did it give?
A: 2.21 ratio
